Drawing on PMC12636033, “Chemical Engineering of Transcription Factors Uncovered Cell-Permeable μMax Modulators”, this text covers binding signal for 32 molecules.

First the molecules themselves.
B1: dBr_Jan07_18594 (dsDNA)
DNA 1: CCAACATCTAAGACCCTGGTAGGGCCTTTCCGACCCGTCTGTGTTCCGTTGTCCGTGCTG
DNA 2: CAGCACGGACAACGGAACACAGACGGGTCGGAAAGGCCCTACCAGGGTCTTAGATGTTGG
B2: dBr_Jan07_36343 (dsDNA)
DNA 1: ATCGGTTAAAGTAACTATATTGGGCTTATCGGACCAGTCTGTGTTCCGTTGTCCGTGCTG
DNA 2: CAGCACGGACAACGGAACACAGACTGGTCCGATAAGCCCAATATAGTTACTTTAACCGAT
B3: dBr_Jan07_10036 (dsDNA)
DNA 1: CCGCGGACAGGTTCAGCCATCCGACTGCTACGCACAGTCTGTGTTCCGTTGTCCGTGCTG
DNA 2: CAGCACGGACAACGGAACACAGACTGTGCGTAGCAGTCGGATGGCTGAACCTGTCCGCGG
B4: dBr_Jan07_22788 (dsDNA)
DNA 1: TTGTTTCGCATCGCTAGGCATTGATAACGGAAGCTGGTCTGTGTTCCGTTGTCCGTGCTG
DNA 2: CAGCACGGACAACGGAACACAGACCAGCTTCCGTTATCAATGCCTAGCGATGCGAAACAA
B5: dBr_Jan07_33770 (dsDNA)
DNA 1: GCGACCCTTCCACGTGCGTGTGTTAATGAGCGCATTGTCTGTGTTCCGTTGTCCGTGCTG
DNA 2: CAGCACGGACAACGGAACACAGACAATGCGCTCATTAACACACGCACGTGGAAGGGTCGC
B6: dBr_Jan07_19630 (dsDNA)
DNA 1: AAGCGAGCAGATAAGCCTAAGCCCGAGCTGAACAAAGTCTGTGTTCCGTTGTCCGTGCTG
DNA 2: CAGCACGGACAACGGAACACAGACTTTGTTCAGCTCGGGCTTAGGCTTATCTGCTCGCTT
B7: dBr_Jan07_18521 (dsDNA)
DNA 1: ACCAATTAGAACGTATCTATGGAGCTTGCCCGATCGGTCTGTGTTCCGTTGTCCGTGCTG
DNA 2: CAGCACGGACAACGGAACACAGACCGATCGGGCAAGCTCCATAGATACGTTCTAATTGGT
B8: dBr_Jan07_17648 (dsDNA)
DNA 1: TTGCGCCCCCAGTCCCGGATATCATAGGAACGAGGAGTCTGTGTTCCGTTGTCCGTGCTG
DNA 2: CAGCACGGACAACGGAACACAGACTCCTCGTTCCTATGATATCCGGGACTGGGGGCGCAA
B9: dBr_Jan07_03145 (dsDNA)
DNA 1: CCGATTTAGGAGCGGGTAAATACAGGCAGCTCTCTGGTCTGTGTTCCGTTGTCCGTGCTG
DNA 2: CAGCACGGACAACGGAACACAGACCAGAGAGCTGCCTGTATTTACCCGCTCCTAAATCGG
B10: dBr_Jan07_39455 (dsDNA)
DNA 1: TGAAAGACCTTAGATGGGCTTGTCTCTTGGCGTTTGGTCTGTGTTCCGTTGTCCGTGCTG
DNA 2: CAGCACGGACAACGGAACACAGACCAAACGCCAAGAGACAAGCCCATCTAAGGTCTTTCA
B11: dBr_Jan07_00062 (dsDNA)
DNA 1: TGGTGACCTGAGAGGCCGGTTGCTTCAGCCTACAACGTCTGTGTTCCGTTGTCCGTGCTG
DNA 2: CAGCACGGACAACGGAACACAGACGTTGTAGGCTGAAGCAACCGGCCTCTCAGGTCACCA
B12: dBr_Jan07_23776 (dsDNA)
DNA 1: CAGCCGCGGCGCCTCTAGCAATCAGGAGCGTCGGTAGTCTGTGTTCCGTTGTCCGTGCTG
DNA 2: CAGCACGGACAACGGAACACAGACTACCGACGCTCCTGATTGCTAGAGGCGCCGCGGCTG
B13: dBr_Jan07_34791 (dsDNA)
DNA 1: GACTTGCCTACTACGCCAGAATTAGCTAGTTGGGTAGTCTGTGTTCCGTTGTCCGTGCTG
DNA 2: CAGCACGGACAACGGAACACAGACTACCCAACTAGCTAATTCTGGCGTAGTAGGCAAGTC
B14: dBr_Jan07_10189 (dsDNA)
DNA 1: GTTTGTGAGGTTCCTGACTCTGAGCGGACCGGTAGAGTCTGTGTTCCGTTGTCCGTGCTG
DNA 2: CAGCACGGACAACGGAACACAGACTCTACCGGTCCGCTCAGAGTCAGGAACCTCACAAAC
B15: dBr_Jan07_07252 (dsDNA)
DNA 1: ATCCTGCCGCTTTCAATCGCCGGACAGCGATCGACAGTCTGTGTTCCGTTGTCCGTGCTG
DNA 2: CAGCACGGACAACGGAACACAGACTGTCGATCGCTGTCCGGCGATTGAAAGCGGCAGGAT
B16: dBr_Jan07_40232 (dsDNA)
DNA 1: TCGCGGAGACACCGCACTACGAGTGGCGAGAAGACCGTCTGTGTTCCGTTGTCCGTGCTG
DNA 2: CAGCACGGACAACGGAACACAGACGGTCTTCTCGCCACTCGTAGTGCGGTGTCTCCGCGA
B17: dBr_Jan07_38419 (dsDNA)
DNA 1: ATTGCTCAGTGACACAGATATGAAGCGCTATGCATCGTCTGTGTTCCGTTGTCCGTGCTG
DNA 2: CAGCACGGACAACGGAACACAGACGATGCATAGCGCTTCATATCTGTGTCACTGAGCAAT
B18: dBr_Jan07_04879 (dsDNA)
DNA 1: ATAACGGCCCGCCTGGACTGATACTCTGTCGCACCAGTCTGTGTTCCGTTGTCCGTGCTG
DNA 2: CAGCACGGACAACGGAACACAGACTGGTGCGACAGAGTATCAGTCCAGGCGGGCCGTTAT
B19: dBr_Jan07_02776 (dsDNA)
DNA 1: GACGAAGTAAGGCTAGCTTGTCGCTAAAAAGACGCAGTCTGTGTTCCGTTGTCCGTGCTG
DNA 2: CAGCACGGACAACGGAACACAGACTGCGTCTTTTTAGCGACAAGCTAGCCTTACTTCGTC
B20: dBr_Jan07_00680 (dsDNA)
DNA 1: ACACCAGCGCGTCAGGAGTTGTGTGAACCCACACCCGTCTGTGTTCCGTTGTCCGTGCTG
DNA 2: CAGCACGGACAACGGAACACAGACGGGTGTGGGTTCACACAACTCCTGACGCGCTGGTGT
B21: dBr_Jan07_30609 (dsDNA)
DNA 1: CGGAAGTCAGATAAAAGGTGGTATCGCGGCTTTAAAGTCTGTGTTCCGTTGTCCGTGCTG
DNA 2: CAGCACGGACAACGGAACACAGACTTTAAAGCCGCGATACCACCTTTTATCTGACTTCCG
B22: dBr_Jan07_28571 (dsDNA)
DNA 1: TCGTTCTTATTTTGGCACGTGCACCCGCTTTGCTCAGTCTGTGTTCCGTTGTCCGTGCTG
DNA 2: CAGCACGGACAACGGAACACAGACTGAGCAAAGCGGGTGCACGTGCCAAAATAAGAACGA
B23: dBr_Jan07_22649 (dsDNA)
DNA 1: TTACATACCAGGACTTATCGCATAGGTAGGCTGAGAGTCTGTGTTCCGTTGTCCGTGCTG
DNA 2: CAGCACGGACAACGGAACACAGACTCTCAGCCTACCTATGCGATAAGTCCTGGTATGTAA
B24: dBr_Jan07_08921 (dsDNA)
DNA 1: CAGACAAAGTCACTGGGCGAGCATGAACCGTTTGCCGTCTGTGTTCCGTTGTCCGTGCTG
DNA 2: CAGCACGGACAACGGAACACAGACGGCAAACGGTTCATGCTCGCCCAGTGACTTTGTCTG
B25: dBr_Jan07_26545 (dsDNA)
DNA 1: ACTGCGCCGGAGAGTTCAACGAACTACTACGTCGAAGTCTGTGTTCCGTTGTCCGTGCTG
DNA 2: CAGCACGGACAACGGAACACAGACTTCGACGTAGTAGTTCGTTGAACTCTCCGGCGCAGT
B26: dBr_Jan07_14635 (dsDNA)
DNA 1: CCTAGAATTCCAACATGACTGTCAACTTGGGAATCTGTCTGTGTTCCGTTGTCCGTGCTG
DNA 2: CAGCACGGACAACGGAACACAGACAGATTCCCAAGTTGACAGTCATGTTGGAATTCTAGG
B27: dBr_Jan07_10789 (dsDNA)
DNA 1: ACGAGTGGCCCTCGCATCGCGGAAGCTAGACTGATTGTCTGTGTTCCGTTGTCCGTGCTG
DNA 2: CAGCACGGACAACGGAACACAGACAATCAGTCTAGCTTCCGCGATGCGAGGGCCACTCGT
B28: dBr_Jan07_31951 (dsDNA)
DNA 1: CATGAGAATCGGCCCGGGTTACGTTCGCGGTACAATGTCTGTGTTCCGTTGTCCGTGCTG
DNA 2: CAGCACGGACAACGGAACACAGACATTGTACCGCGAACGTAACCCGGGCCGATTCTCATG
B29: dBr_Jan07_16464 (dsDNA)
DNA 1: AGATCCAACGAGAGTTATGGACAAACTGGTCCTACAGTCTGTGTTCCGTTGTCCGTGCTG
DNA 2: CAGCACGGACAACGGAACACAGACTGTAGGACCAGTTTGTCCATAACTCTCGTTGGATCT
B30: dBr_Jan07_33794 (dsDNA)
DNA 1: TATTAGAATGTCAGCTCTCAATCACGTGATTCGGAAGTCTGTGTTCCGTTGTCCGTGCTG
DNA 2: CAGCACGGACAACGGAACACAGACTTCCGAATCACGTGATTGAGAGCTGACATTCTAATA
B31: dBr_Jan07_39645 (dsDNA)
DNA 1: AGATCAAAACGTAAGACGACAGGCGAACTTCAGTAAGTCTGTGTTCCGTTGTCCGTGCTG
DNA 2: CAGCACGGACAACGGAACACAGACTTACTGAAGTTCGCCTGTCGTCTTACGTTTTGATCT
B32: dBr_Jan07_32293 (dsDNA)
DNA 1: TCGCGGCTCGAAGCACCCTCCCCAGGGGCATCAGCAGTCTGTGTTCCGTTGTCCGTGCTG
DNA 2: CAGCACGGACAACGGAACACAGACTGCTGATGCCCCTGGGGAGGGTGCTTCGAGCCGCGA

This data set deals with WT Max (Homo sapiens, UniProt P61244-2 13-93, M65Nle, norleucine written as M; other non-natural residues written as X). Briefly: PBM; 50-200 nM protein; PBS, 2% milk, BSA, salmon testes DNA, 0.02% Triton X-100. To be noted: chain copies: 2; label: surface-attached array probe.
WT Max, sequence (P61244 other isoform, or with tags, fused parts or gaps M65Nle): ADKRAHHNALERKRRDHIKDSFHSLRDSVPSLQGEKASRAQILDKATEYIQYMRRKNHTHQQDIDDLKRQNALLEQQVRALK
As to B1, the binding signal was -0.86 robust z of log adjusted intensity (ours), mean of two arrays.

As for B2, the binding signal was -0.56 robust z of log adjusted intensity (ours), mean of two arrays.

For B3, the binding signal is -0.76 robust z of log adjusted intensity (ours), mean of two arrays.

In the case of B4, the binding signal was -0.82 robust z of log adjusted intensity (ours), mean of two arrays.

On to B5, for which the binding signal is 4.84 robust z of log adjusted intensity (ours), mean of two arrays.

As to B6, the binding signal was -0.87 robust z of log adjusted intensity (ours), mean of two arrays.

As to B7, the binding signal was -0.67 robust z of log adjusted intensity (ours), mean of two arrays.

On to B8, for which the binding signal was -1.18 robust z of log adjusted intensity (ours), mean of two arrays.

With B9, the binding signal is -1.12 robust z of log adjusted intensity (ours), mean of two arrays.

As to B10, the binding signal is -0.88 robust z of log adjusted intensity (ours), mean of two arrays.

For B11, the binding signal was -0.8 robust z of log adjusted intensity (ours), mean of two arrays.

As for B12, the binding signal was -0.83 robust z of log adjusted intensity (ours), mean of two arrays.

On to B13, for which the binding signal was -0.49 robust z of log adjusted intensity (ours), mean of two arrays.

On to B14, for which the binding signal is -0.8 robust z of log adjusted intensity (ours), mean of two arrays.

As for B15, the binding signal was -0.55 robust z of log adjusted intensity (ours), mean of two arrays.

Consider B16, for which the binding signal was -0.86 robust z of log adjusted intensity (ours), mean of two arrays.

For B17, the binding signal was -0.96 robust z of log adjusted intensity (ours), mean of two arrays.

For the molecule B18, the binding signal was -0.92 robust z of log adjusted intensity (ours), mean of two arrays.

Regarding B19, the binding signal is -1.15 robust z of log adjusted intensity (ours), mean of two arrays.

Regarding B20, the binding signal is -0.81 robust z of log adjusted intensity (ours), mean of two arrays.

Consider B21, for which the binding signal was -0.46 robust z of log adjusted intensity (ours), mean of two arrays.

Take B22: the binding signal is 5.15 robust z of log adjusted intensity (ours), mean of two arrays.

Turning to B23, the binding signal was -0.77 robust z of log adjusted intensity (ours), mean of two arrays.

As to B24, the binding signal is -0.81 robust z of log adjusted intensity (ours), mean of two arrays.

As to B25, the binding signal was -0.92 robust z of log adjusted intensity (ours), mean of two arrays.

As to B26, the binding signal is -0.81 robust z of log adjusted intensity (ours), mean of two arrays.

Turning to B27, the binding signal is -0.92 robust z of log adjusted intensity (ours), mean of two arrays.

Turning to B28, the binding signal was -0.54 robust z of log adjusted intensity (ours), mean of two arrays.

In the case of B29, the binding signal is -1 robust z of log adjusted intensity (ours), mean of two arrays.

B30: the binding signal is 4.69 robust z of log adjusted intensity (ours), mean of two arrays.

Take B31: the binding signal was -1.15 robust z of log adjusted intensity (ours), mean of two arrays.

Regarding B32, the binding signal was -0.93 robust z of log adjusted intensity (ours), mean of two arrays.
